{
  "source": "the supplement of paper PMC6757056",
  "parents": {"B1": {"name": "library; a variant is named by its letters at N, in order (parent)", "chain": "GCUGUCACCGAGAAACUGUGAAGUAUAUCUUAAACCUGGGCACUUAAAAGAUAUAUGGAGUUAGUAGUGCAACCUGCUCGGUCUGAUGAGUCCNNNNNNGGACGAAACAGC"}},
  "key": {"cyclic di-GMP [1]": {"variants_of": "B1", "assay": "normalized RNA/DNA level without ligand (relative to sTRSVctl = 100) (log10 (% of sTRSVctl)); HEK293T; ligand: cyclic di-GMP (c-di-GMP-II aptamer); higher = less ribozyme self-cleavage, higher mRNA level", "details": "reporter: mCherry (pCS4076), ligand present: no", "procedure,_shortened": "(§1)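 For each 6-well well, 4 µg of library plasmid encoding mCherry-linked ribozyme switches, or eGFP-linked ones in some ligand experiments, was transfected into HEK293T. Any ligand was added 1 h before transfection, and RNA was extracted with EDTA 72 h after it, then reverse-transcribed, amplified, barcoded and sequenced. RNA level was obtained by dividing RNA reads by DNA reads, normalizing to a spiked-in non-cleaving sequence or to the top sequences, then scaling and log-transforming. The top set was 25 sequences, scaling was ×100 with log10, and ≥100 DNA reads were required.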"}, "cyclic di-GMP [2]": {"variants_of": "B1", "assay": "normalized RNA/DNA level with ligand (relative to sTRSVctl = 100) (log10 (% of sTRSVctl)); HEK293T; ligand: cyclic di-GMP (c-di-GMP-II aptamer); ligand concentration (+) RNA-Seq: 1 mM; higher = less ribozyme self-cleavage, higher mRNA level", "details": "reporter: mCherry (pCS4076), ligand present: yes", "procedure,_shortened": "as §1"}},
  "note": "± gives the standard deviation of the averaged measurements.",
  "data": [
    {"variant": "GCUGUCACCGAGAAACUGUGAAGUAUAUCUUAAACCUGGGCACUUAAAAGAUAUAUGGAGUUAGUAGUGCAACCUGCUCGGUCUGAUGAGUCCUGAGUAGGACGAAACAGC", "note": "[UGAGUA]", "values": [
      {"measurement": "normalized RNA/DNA level without ligand (log10)", "setting": "cyclic di-GMP [1]", "value": "1.73 ± 0.032"},
      {"measurement": "normalized RNA/DNA level with ligand (log10)", "setting": "cyclic di-GMP [2]", "value": "1.85 ± 0.15"}
    ]},
    {"variant": "GCUGUCACCGAGAAACUGUGAAGUAUAUCUUAAACCUGGGCACUUAAAAGAUAUAUGGAGUUAGUAGUGCAACCUGCUCGGUCUGAUGAGUCCGGAGUCGGACGAAACAGC", "note": "[GGAGUC]", "values": [
      {"measurement": "normalized RNA/DNA level without ligand (log10)", "setting": "cyclic di-GMP [1]", "value": "1.55 ± 0.046"},
      {"measurement": "normalized RNA/DNA level with ligand (log10)", "setting": "cyclic di-GMP [2]", "value": "1.79 ± 0.051"}
    ]},
    {"variant": "GCUGUCACCGAGAAACUGUGAAGUAUAUCUUAAACCUGGGCACUUAAAAGAUAUAUGGAGUUAGUAGUGCAACCUGCUCGGUCUGAUGAGUCCAGAGUCGGACGAAACAGC", "note": "[AGAGUC]", "values": [
      {"measurement": "normalized RNA/DNA level without ligand (log10)", "setting": "cyclic di-GMP [1]", "value": "1.6 ± 0.02"},
      {"measurement": "normalized RNA/DNA level with ligand (log10)", "setting": "cyclic di-GMP [2]", "value": "1.76 ± 0.097"}
    ]},
    {"variant": "GCUGUCACCGAGAAACUGUGAAGUAUAUCUUAAACCUGGGCACUUAAAAGAUAUAUGGAGUUAGUAGUGCAACCUGCUCGGUCUGAUGAGUCCAGAGUAGGACGAAACAGC", "note": "[AGAGUA]", "values": [
      {"measurement": "normalized RNA/DNA level without ligand (log10)", "setting": "cyclic di-GMP [1]", "value": "1.66 ± 0.029"},
      {"measurement": "normalized RNA/DNA level with ligand (log10)", "setting": "cyclic di-GMP [2]", "value": "1.73 ± 0.081"}
    ]},
    {"variant": "GCUGUCACCGAGAAACUGUGAAGUAUAUCUUAAACCUGGGCACUUAAAAGAUAUAUGGAGUUAGUAGUGCAACCUGCUCGGUCUGAUGAGUCCCGAGUGGGACGAAACAGC", "note": "[CGAGUG]", "values": [
      {"measurement": "normalized RNA/DNA level without ligand (log10)", "setting": "cyclic di-GMP [1]", "value": "1.7 ± 0.049"},
      {"measurement": "normalized RNA/DNA level with ligand (log10)", "setting": "cyclic di-GMP [2]", "value": "1.83 ± 0.15"}
    ]},
    {"variant": "GCUGUCACCGAGAAACUGUGAAGUAUAUCUUAAACCUGGGCACUUAAAAGAUAUAUGGAGUUAGUAGUGCAACCUGCUCGGUCUGAUGAGUCCCGAGUAGGACGAAACAGC", "note": "[CGAGUA]", "values": [
      {"measurement": "normalized RNA/DNA level without ligand (log10)", "setting": "cyclic di-GMP [1]", "value": "1.7354 ± 0.0011"},
      {"measurement": "normalized RNA/DNA level with ligand (log10)", "setting": "cyclic di-GMP [2]", "value": "1.79 ± 0.11"}
    ]},
    {"variant": "GCUGUCACCGAGAAACUGUGAAGUAUAUCUUAAACCUGGGCACUUAAAAGAUAUAUGGAGUUAGUAGUGCAACCUGCUCGGUCUGAUGAGUCCCGAGUCGGACGAAACAGC", "note": "[CGAGUC]", "values": [
      {"measurement": "normalized RNA/DNA level without ligand (log10)", "setting": "cyclic di-GMP [1]", "value": "1.76 ± 0.065"},
      {"measurement": "normalized RNA/DNA level with ligand (log10)", "setting": "cyclic di-GMP [2]", "value": "1.88 ± 0.12"}
    ]},
    {"variant": "GCUGUCACCGAGAAACUGUGAAGUAUAUCUUAAACCUGGGCACUUAAAAGAUAUAUGGAGUUAGUAGUGCAACCUGCUCGGUCUGAUGAGUCCAGAGGGGGACGAAACAGC", "note": "[AGAGGG]", "values": [
      {"measurement": "normalized RNA/DNA level without ligand (log10)", "setting": "cyclic di-GMP [1]", "value": "1.47 ± 0.098"},
      {"measurement": "normalized RNA/DNA level with ligand (log10)", "setting": "cyclic di-GMP [2]", "value": "1.62 ± 0.13"}
    ]},
    {"variant": "GCUGUCACCGAGAAACUGUGAAGUAUAUCUUAAACCUGGGCACUUAAAAGAUAUAUGGAGUUAGUAGUGCAACCUGCUCGGUCUGAUGAGUCCAGAGGUGGACGAAACAGC", "note": "[AGAGGU]", "values": [
      {"measurement": "normalized RNA/DNA level without ligand (log10)", "setting": "cyclic di-GMP [1]", "value": "1.57 ± 0.022"},
      {"measurement": "normalized RNA/DNA level with ligand (log10)", "setting": "cyclic di-GMP [2]", "value": "1.73 ± 0.077"}
    ]},
    {"variant": "GCUGUCACCGAGAAACUGUGAAGUAUAUCUUAAACCUGGGCACUUAAAAGAUAUAUGGAGUUAGUAGUGCAACCUGCUCGGUCUGAUGAGUCCCGAGGUGGACGAAACAGC", "note": "[CGAGGU]", "values": [
      {"measurement": "normalized RNA/DNA level without ligand (log10)", "setting": "cyclic di-GMP [1]", "value": "1.72 ± 0.038"},
      {"measurement": "normalized RNA/DNA level with ligand (log10)", "setting": "cyclic di-GMP [2]", "value": "1.84 ± 0.096"}
    ]},
    {"variant": "GCUGUCACCGAGAAACUGUGAAGUAUAUCUUAAACCUGGGCACUUAAAAGAUAUAUGGAGUUAGUAGUGCAACCUGCUCGGUCUGAUGAGUCCCGAGGGGGACGAAACAGC", "note": "[CGAGGG]", "values": [
      {"measurement": "normalized RNA/DNA level without ligand (log10)", "setting": "cyclic di-GMP [1]", "value": "1.617 ± 0.014"},
      {"measurement": "normalized RNA/DNA level with ligand (log10)", "setting": "cyclic di-GMP [2]", "value": "1.76 ± 0.036"}
    ]},
    {"variant": "GCUGUCACCGAGAAACUGUGAAGUAUAUCUUAAACCUGGGCACUUAAAAGAUAUAUGGAGUUAGUAGUGCAACCUGCUCGGUCUGAUGAGUCCUGAGGUGGACGAAACAGC", "note": "[UGAGGU]", "values": [
      {"measurement": "normalized RNA/DNA level without ligand (log10)", "setting": "cyclic di-GMP [1]", "value": "1.61 ± 0.052"},
      {"measurement": "normalized RNA/DNA level with ligand (log10)", "setting": "cyclic di-GMP [2]", "value": "1.79 ± 0.12"}
    ]},
    {"variant": "GCUGUCACCGAGAAACUGUGAAGUAUAUCUUAAACCUGGGCACUUAAAAGAUAUAUGGAGUUAGUAGUGCAACCUGCUCGGUCUGAUGAGUCCUGAGGGGGACGAAACAGC", "note": "[UGAGGG]", "values": [
      {"measurement": "normalized RNA/DNA level without ligand (log10)", "setting": "cyclic di-GMP [1]", "value": "1.63 ± 0.045"},
      {"measurement": "normalized RNA/DNA level with ligand (log10)", "setting": "cyclic di-GMP [2]", "value": "1.79 ± 0.083"}
    ]}
  ]
}
